Target: wildtype human transient receptor potential ankyrin 1 channel subunit (hTRPA1_WT) (human) (UniProt O75762)
Experiment: co-IP

| normalized fold of enrichment (against HA-tagged WT) | Substance |
| --- | --- |
| 0.71 fold | hTRPA1_27A splice variant, HA-tagged (natural protein) |
| 0.62 fold | hTRPA1_27B splice variant, HA-tagged (natural protein) |
